T1: Rhesus-ICAM1 (rhesus, UniProt Q5NKV6 28-480, limits assumed)
T1 sequence (looked up): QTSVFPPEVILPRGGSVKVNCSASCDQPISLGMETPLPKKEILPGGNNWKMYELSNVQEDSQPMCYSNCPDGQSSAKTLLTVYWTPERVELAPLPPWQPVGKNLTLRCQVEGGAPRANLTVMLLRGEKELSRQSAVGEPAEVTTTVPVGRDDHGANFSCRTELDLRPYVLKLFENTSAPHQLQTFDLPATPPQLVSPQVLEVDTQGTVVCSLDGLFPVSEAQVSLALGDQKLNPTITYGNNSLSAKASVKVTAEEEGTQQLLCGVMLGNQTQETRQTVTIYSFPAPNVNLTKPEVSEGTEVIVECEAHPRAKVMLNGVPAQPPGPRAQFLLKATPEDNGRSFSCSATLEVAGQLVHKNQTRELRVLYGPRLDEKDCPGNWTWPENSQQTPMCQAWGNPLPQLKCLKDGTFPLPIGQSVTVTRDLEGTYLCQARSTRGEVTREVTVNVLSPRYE

B1: 25C3 (antibody, human IgG1, kappa, V domains shown)
VH: QEQLEESGGDLVKPGASLTLTCKASGFSFSSAYDMCWVRQAPGKGLEWVACLYTVSSDSIYYASWAKGRFTISRTSSTTVTLQMTSLTAADTATYFCARDGDYFALWGPGTLVTVSS
VL: DIVMTHTPASVEAAVGGTVTIKCQASQNIGGYLSWYQQKPGQRPKLLIYRASTLASGVPSRFKGSGSGTQFTLTISDLESADAATYYCQTYYYSGSSRYWAFGGGTEVVVKR
notes: Rabbit-human chimeric anti-CD38: rabbit VH and VL on human IgG1 and kappa constant regions
B2: 25E4 (antibody, human IgG1, kappa, V domains shown)
VH: QSLEESGGRLVTPGTPLTLTCTVSGIDLSIYTMAWVRQAPGKGLEYIGIISGYGTTYYATWAKGRFIVSKTSTTVDLKITSPTTEDTATYFCVRTTVQSTDLWGPGTLVTVSS
VL: DIVMTQTPASVEAAVGGTVTINCQASQNIYSNLAWYQQKPGQRPKLLIYKASTLASGVSSRFKGSGSGTEFTLTISDLASADAATYYCQSYYGATSSSFGYGFGGGTEVVVKR
notes: as for B1
B3: 17E9 (antibody, human IgG1, kappa, V domains shown)
VH: QSVEESGGRLVTPGTPLTLTCTASGFSLSRYYVTWVRQAPGKGLEWIGIIYISGTTYYATWAKGRFTISKSATTVDLRIASPTTEDTATYFCAAAWPVGTYVLPLWGPGTLVTVSS
VL: AAVLTQTPSPVSAAVGGTVTIKCQSSQSVVNANNLSWYQQKPGQPPKLLIYLASTLASGVPSRFSGSGSGTQFTLTISSVQSDDAATYYCLGVYDDDGDNAFGGGTEVVVKR
notes: as for B1
B4: 17F7 (antibody, human IgG1, kappa, V domains shown)
VH: QSVEESGGRLVTPGTPLTLTCTASGFSLSSYYMSWVRQAPGKGLEWIGFISKTAITYYASWARGRFTISKTSTAVDLKITSPTTEDTATYFCARVDAYSAGDLWGPGTLVTVSS
VL: AQVLTQTPSSVSAAVGGTVTINCQASQSVYSDNRLSWFQQKSGQPPKLLIYSTSSLASGVPSRFSGSGSGTQFTLTISGVQSDDAASYYCQGEFICTSADCFVFGGGTEVVVKR
notes: as for B1
B5: 27F6 (antibody, human IgG1, kappa, V domains shown)
VH: QSLEESGGGLVKPGASLTLTCKASGFSFSSGCDMCWVRQAPGKGLEWISCIYTGSGSTYYANWAKGRFTISRTSSTTVTLQMTSLTAADTATYFCAGDSDYLGLWGPGTLVTVSS
VL: DIVMTQTPSSVEAAVGGTVTIKCQASQNIGNYLAWYQQKPGQPPKVLIYRASTLASGVPSRFKGSGSGTHFTLTISDLESADAATYYCQSYYYTTDDNYRSWAFGGGTEVVVKR
notes: as for B1
B6: 25F12 (antibody, human IgG1, kappa, V domains shown)
VH: RSLEESGGRLVTPGTPLTLTCTTSGFSLSSYDMSWVRQAPGKGLEWIGYITYGGNIYYATWAKGRFTTSKTSTTVDLKITSPTTEDTATYFCARTLYTGGRYYFSLWGPGTLVTVSS
VL: AQVLTQTPSSVSAVVGGTVTINCQSSQSIANSNEVAWYQQKLGQPPKLLIYDASTLASGVPSRFSGSGSGTQFTLIISGVQSDDAATYYCQGTVYDNVWYAAFGGGTEVVVKR
notes: as for B1
B7: 18E4 (antibody, human IgG1, kappa, V domains shown)
VH: QSLEESGGDLVKPGASLTLTCTASGFSFNNYWICWIRQAPGKGLEWVACIYSPSGDIKYYANWAKGRFTVSKTSSTTVTLQMTSLTGADTATYFCARELSGSSYEGYFESWGPGTLVTVSS
VL: AQVLTQTPSSVSAAVGGTVTINCQCSQSVYGHNWLAWYQHKPGQPPKLLMYRASNLASGVPSRFKGSGSGSQFTLTIGEVQSDDAATYYCQGYYNGGSYAFGGGTEVVVRR
notes: as for B1
B8: Anti-ICAM1 G12 (antibody, human IgG1, lambda, V domains shown)
VH: QVQLQESGGGLVQPGGSLRLSCAASGFTFSSYAMSWVRQAPGKGLEWVSAISGSGGSTYYADSVKGRFTISRDNSKNTLYLQMSSLRAEDTAFYYCANSAYTGGWYDYWGHGTLVTVSS
VL: ASELTQDPAVSVALGQTVKITCQGDSLRTYYASWYQQRPGQAPVLVIYGENSRPSGIPDRFSGSSSGNTASLTITGAQAEDEADYYCNSRDSSGNHLRVFGGGTKLTVLG
notes: Human IgG1 with a lambda light chain; also called anti-ICAM1 clone G12

Each binder was assayed against T2, CD38 on the surface of Daudi cells (human, UniProt P28907 1-300) (assay: flow cytometry, Daudi cells;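 also: purified antibodies incubated with Daudi cells for 1 h at 4 °C, bound antibody detected by fluorescent secondary antibody and read by flow cytometry as MFI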).
T2 construct: whole, on cells
Method: (§1) Harvested cells were centrifuged at 2000 rpm for 5 min and resuspended with 10-15 ml ice-cold culture medium. Cells were counted and then 3×10⁶ cells were resuspended per mL of blocking buffer (PBS plus 2% FBS). 100 μl of the cell suspension was dispensed into each well of a 96-well plate and incubated at room temperature for 10-20 min. […] While incubating, purified antibodies were diluted to the desired dilution with blocking buffer. After a 10-20 minutes incubation, cells were centrifuged for 5 min at 2000 rmp in a refrigerated centrifuge. Blocking buffer was aspirated, and cells were resuspended in 100 μl/well diluted antibodies and incubated for 1 hour at 4° C. The cells were then washed 3 times with PBS plus 2% FBS. After the final wash, the cells were resuspended in 100 μl 1:500 diluted secondary antibody (Invitrogen, Cat #: A10631) and incubated for 1 hour at 4° C. in the dark. The cells were then washed 3 times with 200 μl PBS by centrifuging at 2000 rpm for 5 min. After the last wash, the cells were resuspended in 300 μl cold PBS and analyzed on a FACSVerse™ (BD Biosciences) flow cytometer.

EC50 [pM] | Max Binding MFI [MFI] | Binder
347 | 1180 | B1
503 | 859 | B2
263 | 2260 | B3
432 | 1530 | B4
298 | 1200 | B5
263 | 1030 | B6
900 | 1580 | B7

Each binder was assayed against T3, ICAM1 on the surface of DU145 cells (human, UniProt P05362 28-532) (assay: flow cytometry, DU145 cells;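 also: purified antibodies in dilution series bound to cells for 1 h at 4 °C, detected with a fluorescent secondary antibody (1 h, 4 °C, dark), read by flow cytometry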).
T3 construct: whole, on cells
T3 sequence (P05362 28-532): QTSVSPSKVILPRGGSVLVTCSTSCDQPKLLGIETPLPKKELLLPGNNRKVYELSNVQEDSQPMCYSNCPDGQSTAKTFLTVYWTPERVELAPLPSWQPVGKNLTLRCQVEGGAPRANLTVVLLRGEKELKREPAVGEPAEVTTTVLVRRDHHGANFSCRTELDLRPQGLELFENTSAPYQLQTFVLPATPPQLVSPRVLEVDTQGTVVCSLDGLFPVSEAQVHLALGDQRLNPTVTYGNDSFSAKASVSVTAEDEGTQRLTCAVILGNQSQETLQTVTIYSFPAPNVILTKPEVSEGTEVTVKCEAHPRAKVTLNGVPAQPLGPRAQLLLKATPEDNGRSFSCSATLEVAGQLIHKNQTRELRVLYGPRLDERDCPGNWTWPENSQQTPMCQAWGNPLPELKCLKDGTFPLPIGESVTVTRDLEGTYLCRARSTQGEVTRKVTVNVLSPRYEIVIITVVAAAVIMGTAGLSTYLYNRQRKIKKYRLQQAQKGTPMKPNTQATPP
Method: as §1

EC50 [pM] | Max Binding MFI [MFI] | Binder
260 | 5010 | B8

Each binder was assayed against T4, recombinant human CD38 (human, UniProt P28907 43-300, limits assumed) (assay: SPR (Biacore 8K), antibody captured, antigen injected;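 also: antibodies held on a CM5 chip through anti-human IgG Fc, antigen in 3-fold serial dilutions, 1 min association then 10 min dissociation at 25 °C, 1:1 Langmuir global fit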).
Method: (§2) The binding kinetics of the anti-CD38 and anti-ICAM1 antibodies were evaluated on a Biacore 8K instrument (GE Healthcare). Biacore Series S CM5 sensor chips were immobilized with monoclonal mouse anti-human IgG (Fc) antibody (human antibody capture kit from GE Healthcare). Antibodies were captured on each flow cell. Serial 3-fold dilutions of each antigen were injected at a flow rate of 30 μl/min. Each sample was analyzed with 1 min association and 10 min dissociation at room temperature (25° C.). After each injection, the chip was regenerated using 3M MgCl₂. A 1:1 Langmuir model of simultaneous fitting of kₒₙ and koff was used for kinetics analysis.

Kd [pM] | koff [s⁻¹] | kon [M⁻¹ s⁻¹] | Binder
30 | 3.48e-05 | 1.15e+06 | B1
70 | 2.59e-05 | 380000 | B2
150 | 0.000142 | 923000 | B3
7560 | 0.00378 | 500000 | B4
310 | 0.000117 | 376000 | B5
10 | 2.24e-05 | 1.84e+06 | B6
270 | 8.13e-05 | 303000 | B7

Each binder was assayed against T5, cynomolgus CD38 ECD (cynomolgus, UniProt Q5VAN0 44-301, biotinylated on the AviTag during preparation) in the same assay as above.
T5 construct: also called Cyno-CD38; Avi-Cyno CD38 ECD
Method: as §2

Kd [pM] | koff [s⁻¹] | kon [M⁻¹ s⁻¹] | Binder
150 | 0.000187 | 1.23e+06 | B1
140 | 0.000175 | 1.23e+06 | B2
60 | 0.000166 | 2.64e+06 | B3
2320 | 0.00382 | 1.65e+06 | B4
280 | 0.00029 | 1.02e+06 | B5
180 | 0.000185 | 1.04e+06 | B6
420 | 0.000236 | 563000 | B7

The binders below were run against T6, recombinant human ICAM1 (human, UniProt P05362 28-480, limits assumed) in the same assay as above.
T6 sequence (P05362 28-480 limits assumed): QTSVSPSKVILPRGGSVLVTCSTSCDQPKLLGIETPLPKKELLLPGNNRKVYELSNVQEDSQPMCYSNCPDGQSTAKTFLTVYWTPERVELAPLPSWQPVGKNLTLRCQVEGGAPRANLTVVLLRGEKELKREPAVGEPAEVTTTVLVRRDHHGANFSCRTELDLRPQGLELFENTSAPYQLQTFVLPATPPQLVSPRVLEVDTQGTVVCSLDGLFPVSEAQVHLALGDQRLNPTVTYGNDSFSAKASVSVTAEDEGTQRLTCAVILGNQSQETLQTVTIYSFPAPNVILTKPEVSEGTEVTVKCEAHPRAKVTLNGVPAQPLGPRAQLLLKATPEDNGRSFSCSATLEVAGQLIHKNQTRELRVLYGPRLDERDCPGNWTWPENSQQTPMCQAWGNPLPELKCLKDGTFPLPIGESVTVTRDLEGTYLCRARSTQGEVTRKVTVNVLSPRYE
Method: as §2

Kd [pM] | koff [s⁻¹] | kon [M⁻¹ s⁻¹] | Binder
12200 | 0.00331 | 272000 | B8

These binders were tested against T1, Rhesus-ICAM1 in the same assay as above.
Method: as §2

Kd [pM] | koff [s⁻¹] | kon [M⁻¹ s⁻¹] | Binder
17700 | 0.0224 | 1.27e+06 | B8

These binders were tested against T6, recombinant human ICAM1 (assay: SPR (Biacore T200), antigen immobilised, antibody injected).
Method: The binding kinetics of the bispecific anti-CD38/anti-ICAM1 antibodies were evaluated using Biacore T200 (GE Healthcare). The recombinant CD38 or ICAM1 were immobilized at low density on Biacore Series S CM5 sensor chips using the amine coupling kit (GE Healthcare). Serial 3-fold dilutions of each antibody were injected at a flow rate of 30 ul/min. Each sample was analyzed with 3m association and 15 min dissociation at room temperature (25° C.). After each injection, the chip was regenerated using 10 mM Glycine pH1.5. A 1:1 Langmuir model of simultaneous fitting of kₒₙ and koff was used for kinetics analysis.

Kd [pM] | koff [s⁻¹] | kon [M⁻¹ s⁻¹] | Binder
3200 | 0.000763 | 242000 | B8

What follows are binders tested against T4, recombinant human CD38 (assay: ELISA: plate coated with 1 ug/ml recombinant human CD38 ECD, serially diluted antibody, OD450).
Method: (§3) The plate was coated overnight at 4° C. with 1 μg/ml recombinant CD38 or ICAM1. After washing 3 times, the plate was blocked with 300 μl 1% BSA in PBST at 37° C. for 1 hour. Serially diluted antibodies were added and incubated at 37° C. for 1 hour. The plate was then washed 4 times with PBST and incubated with 1:5000 diluted 2nd antibody (Sigma, Cat #A0293) at 37° C. for 1 hour.

EC50 (read off the curve) [pM] | Binder
~60 | B1
~60 | B2
~60 | B3
~60 | B4
~60 | B5
~60 | B6
~60 | B7

What follows are binders tested against T6, recombinant human ICAM1 (assay: ELISA: plate coated with 1 ug/ml recombinant human ICAM1 ECD, serially diluted antibody, OD450).
Method: as §3

EC50 (read off the curve) [pM] | Binder
~40 | B8

These binders were tested against T1, Rhesus-ICAM1 (assay: ELISA: plate coated with 1 ug/ml recombinant rhesus ICAM1 ECD, serially diluted antibody, OD450).
Method: as §3

EC50 (read off the curve) [pM] | Binder
~40 | B8

Each binder was assayed against T5, cynomolgus CD38 ECD (assay: ELISA: plate coated with 1 ug/ml recombinant cynomolgus CD38 ECD, serially diluted antibody, OD450).
Method: as §3

EC50 (read off the curve) [pM] | Binder
~60 | B1
~60 | B2
~60 | B3
~60 | B4
~60 | B5
~60 | B6
~60 | B7
